The chains are these.
B1: Keratin, type II cytoskeletal 6A (Homo sapiens), P02538 (parent)
chain: MASTSTTIRSHSSSRRGFSANSARLPGVSRSGFSSVSVSRSRGSGGLGGACGGAGFGSRSLYGLGGSKRISIGGGSCAISGGYGSRAGGSYGFGGAGSGFGFGGGAGIGFGLGGGAGLAGGFGGPGFPVCPPGGIQEVTVNQSLLTPLNLQIDPTIQRVRAEEREQIKTLNNKFASFIDKVRFLEQQNKVLETKWTLLQEQGTKTVRQNLEPLFEQYINNLRRQLDSIVGERGRLDSELRGMQDLVEDFKNKYEDEINKRTAAENEFVTLKKDVDAAYMNKVELQAKADTLTDEINFLRALYDAELSQMQTHISDTSVVLSMDNNRNLDLDSIIAEVKAQYEEIAQRSRAEAESWYQTKYEELQVTAGRHGDDLRNTKQEIAEINRMIQRLRSEIDHVKKQCANLQAAIADAEQRGEMALKDAKNKLEGLEDALQKAKQDLARLLKEYQELMNVKLALDVEIATYRKLLEGEECRLNGEGVGQVNISVVQSTVSSGYGGASGVGSGLGLGGGSSYSYGSGLGVGGGFSSSSGRAIGGGLSSVGGGSSTIKYTTTSSSSRKSYKH
partner: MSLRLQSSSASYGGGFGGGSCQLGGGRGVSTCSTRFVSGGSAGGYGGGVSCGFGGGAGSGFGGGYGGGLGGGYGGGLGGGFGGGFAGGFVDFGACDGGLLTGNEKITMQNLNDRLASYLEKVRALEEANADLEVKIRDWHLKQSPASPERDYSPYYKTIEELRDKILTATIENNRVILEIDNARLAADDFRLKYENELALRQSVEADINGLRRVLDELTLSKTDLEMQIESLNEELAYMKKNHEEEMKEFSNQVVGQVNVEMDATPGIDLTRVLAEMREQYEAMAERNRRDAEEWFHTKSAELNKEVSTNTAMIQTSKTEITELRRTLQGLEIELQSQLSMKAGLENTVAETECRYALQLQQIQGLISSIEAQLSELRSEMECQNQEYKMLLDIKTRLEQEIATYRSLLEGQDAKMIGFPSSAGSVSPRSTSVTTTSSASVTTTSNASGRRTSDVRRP
B2: EF-hand domain-containing protein 1 (Homo sapiens), Q5JVL4 (parent)
chain: MVSNPVHGLPFLPGTSFKDSTKTAFHRSQTLSYRNGYAIVRRPTVGIGGDRLQFNQLSQAELDELASKAPVLTYGQPKQAPPADFIPAHVAFDKKVLKFDAYFQEDVPMSTEEQYRIRQVNIYYYLEDDSMSVIEPVVENSGILQGKLIKRQRLAKNDRGDHYHWKDLNRGINITIYGKTFRVVDCDQFTQVFLESQGIELNPPEKMALDPYTELRKQPLRKYVTPSDFDQLKQFLTFDKQVLRFYAIWDDTDSMYGECRTYIIHYYLMDDTVEIREVHERNDGRDPFPLLMNRQRVPKVLVENAKNFPQCVLEISDQEVLEWYTAKDFIVGKSLTILGRTFFIYDCDPFTRRYYKEKFGITDLPRIDVSKREPPPVKQELPPYNGFGLVEDSAQNCFALIPKAPKKDVIKMLVNDNKVLRYLAVLESPIPEDKDRRFVFSYFLATDMISIFEPPVRNSGIIGGKYLGRTKVVKPYSTVDNPVYYGPSDFFIGAVIEVFGHRFIILDTDEYVLKYMESNAAQYSPEALASIQNHVRKREAPAPEAESKQTEKDPGVQELEALIDTIQKQLKDHSCKDNIREAFQIYDKEASGYVDRDMFFKICESLNVPVDDSLVKELIRMCSHGEGKINYYNFVRAFSN
partner: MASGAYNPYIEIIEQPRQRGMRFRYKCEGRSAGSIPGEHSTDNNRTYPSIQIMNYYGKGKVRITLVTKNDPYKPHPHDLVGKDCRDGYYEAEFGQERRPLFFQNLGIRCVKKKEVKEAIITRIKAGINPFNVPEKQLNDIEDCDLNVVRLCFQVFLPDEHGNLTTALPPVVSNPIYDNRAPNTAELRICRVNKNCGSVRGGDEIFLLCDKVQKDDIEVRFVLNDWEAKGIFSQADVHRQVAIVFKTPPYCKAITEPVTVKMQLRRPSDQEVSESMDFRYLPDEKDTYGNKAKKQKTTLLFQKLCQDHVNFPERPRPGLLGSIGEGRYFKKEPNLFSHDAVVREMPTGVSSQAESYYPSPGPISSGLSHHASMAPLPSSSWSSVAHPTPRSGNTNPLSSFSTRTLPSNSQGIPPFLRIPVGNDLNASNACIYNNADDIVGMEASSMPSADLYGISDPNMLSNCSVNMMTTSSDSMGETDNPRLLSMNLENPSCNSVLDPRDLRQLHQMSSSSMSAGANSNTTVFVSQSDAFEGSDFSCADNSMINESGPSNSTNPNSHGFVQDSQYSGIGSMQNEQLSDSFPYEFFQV
B3: Homeobox protein SIX1 (Homo sapiens), Q15475 (parent)
chain: MSMLPSFGFTQEQVACVCEVLQQGGNLERLGRFLWSLPACDHLHKNESVLKAKAVVAFHRGNFRELYKILESHQFSPHNHPKLQQLWLKAHYVEAEKLRGRPLGAVGKYRVRRKFPLPRTIWDGEETSYCFKEKSRGVLREWYAHNPYPSPREKRELAEATGLTTTQVSNWFKNRRQRDRAAEAKERENTENNNSSSNKQNQLSPLEGGKPLMSSSEEEFSPPQSPDQNSVLLLQGNMGHARSSNYSLPGLTASQPSHGLQTHQHQLQDSLLGPLTSSLVDLGS
partner: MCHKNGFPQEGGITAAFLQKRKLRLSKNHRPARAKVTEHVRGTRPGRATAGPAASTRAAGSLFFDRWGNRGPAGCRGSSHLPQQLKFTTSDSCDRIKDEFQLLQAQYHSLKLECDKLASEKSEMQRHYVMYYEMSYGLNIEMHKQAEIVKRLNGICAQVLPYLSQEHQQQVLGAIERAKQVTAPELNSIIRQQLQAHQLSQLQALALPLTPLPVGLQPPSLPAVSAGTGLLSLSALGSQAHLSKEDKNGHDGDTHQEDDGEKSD

Consider nine variants from IntAct's records for PubMed 25910212.

In one assay the parent is B1. The note with it: with KRT13, P13646.
For MASTSTTIRSHSSSRRGFSANSARLPGVSRSGFSSVSVSRSRGSGGLGGACGGAGFGSRSLYGLGGSKRISIGGGSCAISGGYGSRAGGSYGFGGAGSGFGFGGGAGIGFGLGGGAGLAGGFGGPGFPVCPPGGIQEVTVNQSLLTPLNLQIDPTIQRVRAEEREQIKTLNNKVASFIDKVRFLEQQNKVLETKWTLLQEQGTKTVRQNLEPLFEQYINNLRRQLDSIVGERGRLDSELRGMQDLVEDFKNKYEDEINKRTAAENEFVTLKKDVDAAYMNKVELQAKADTLTDEINFLRALYDAELSQMQTHISDTSVVLSMDNNRNLDLDSIIAEVKAQYEEIAQRSRAEAESWYQTKYEELQVTAGRHGDDLRNTKQEIAEINRMIQRLRSEIDHVKKQCANLQAAIADAEQRGEMALKDAKNKLEGLEDALQKAKQDLARLLKEYQELMNVKLALDVEIATYRKLLEGEECRLNGEGVGQVNISVVQSTVSSGYGGASGVGSGLGLGGGSSYSYGSGLGVGGGFSSSSGRAIGGGLSSVGGGSSTIKYTTTSSSSRKSYKH [F174V], the “effect of a mutation on the interaction” value is “with no effect”.

Turning to MASTSTTIRSHSSSRRGFSANSARLPGVSRSGFSSVSVSRSRGSGGLGGACGGAGFGSRSLYGLGGSKRISIGGGSCAISGGYGSRAGGSYGFGGAGSGFGFGGGAGIGFGLGGGAGLAGGFGGPGFPVCPPGGIQEVTVNQSLLTPLNLQIDPTIQRVRAEEREQIKTLNNKFASFIDKVRFLEQQNKVLETKWTLLQEQGTKTVRQNLEPLFEQYINNLRRQLDSIVGERGRLDSELRGMQDLVEDFKNKYEDEINKRTAAENEFVTLKKDVDAAYMNKVELQAKADTLTDEINFLRALYDAELSQMQTHISDTSVVLSMDNNRNLDLDSIIAEVKAQYEEIAQRSRAEAESWYQTKYEELQVTAGRHGDDLRNTKQEIAEINRMIQRLRSEIDHVKKQCANLQAAIADAEQRGEMALKDAKNKLEGLEDALQKAKQDLARLLKEYQELMNVKLALDVEIATYRKLLEGEECRLNGEGVGQVNISVVQSTVSSGYGGASGVGSGLGLGGGSSYSYGSGLGVGGGFSSSSGRAIGGGLSSVGGGSSTIKYSTTSSSSRKSYKH [T552S], the “effect of a mutation on the interaction” value is “with no effect”.

Variants of B2 are the subject of the next assay. As to conditions: with REL.
For R159W, the “effect of a mutation on the interaction” value is “with no effect”. Same read-out and setting: with M448T the entry was “with no effect”; with P77T, “disrupting interaction strength”. The same measure, in the same setting: with T508R the entry was “disrupting interaction strength”; with R221H, “disrupting interaction strength”. The same measure, in the same setting: with A394S the entry was “disrupting interaction strength”.

The variants in the next assay derive from B3. As to conditions: with TLE5, Q08117-2.
With MSMLPSFGFTQEQVACVCEVLQQGGNLERLGRFLWSLPACDHLHKNESVLKAKAVVAFHRGNFRELYKILESHQFSPHNHPKLQQLWLKAHYVEAEKLRGRPLGAVGKYRVCRKFPLPRTIWDGEETSYCFKEKSRGVLREWYAHNPYPSPREKRELAEATGLTTTQVSNWFKNRRQRDRAAEAKERENTENNNSSSNKQNQLSPLEGGKPLMSSSEEEFSPPQSPDQNSVLLLQGNMGHARSSNYSLPGLTASQPSHGLQTHQHQLQDSLLGPLTSSLVDLGS [R112C], the “effect of a mutation on the interaction” value is “with no effect”.
